These results are taken from article PMC6868236.

This assay concerns the target Tra1 (S. pombe) (UniProt Q9HFE8). The assay can be described thus: Spt7-TAP tandem affinity purification of SAGA, LC-MS/MS label-free quantification (LFQ). The settings on record: parent: 1.0.
Sequence of UniProt Q9HFE8 (Q9HFE8 whole entry): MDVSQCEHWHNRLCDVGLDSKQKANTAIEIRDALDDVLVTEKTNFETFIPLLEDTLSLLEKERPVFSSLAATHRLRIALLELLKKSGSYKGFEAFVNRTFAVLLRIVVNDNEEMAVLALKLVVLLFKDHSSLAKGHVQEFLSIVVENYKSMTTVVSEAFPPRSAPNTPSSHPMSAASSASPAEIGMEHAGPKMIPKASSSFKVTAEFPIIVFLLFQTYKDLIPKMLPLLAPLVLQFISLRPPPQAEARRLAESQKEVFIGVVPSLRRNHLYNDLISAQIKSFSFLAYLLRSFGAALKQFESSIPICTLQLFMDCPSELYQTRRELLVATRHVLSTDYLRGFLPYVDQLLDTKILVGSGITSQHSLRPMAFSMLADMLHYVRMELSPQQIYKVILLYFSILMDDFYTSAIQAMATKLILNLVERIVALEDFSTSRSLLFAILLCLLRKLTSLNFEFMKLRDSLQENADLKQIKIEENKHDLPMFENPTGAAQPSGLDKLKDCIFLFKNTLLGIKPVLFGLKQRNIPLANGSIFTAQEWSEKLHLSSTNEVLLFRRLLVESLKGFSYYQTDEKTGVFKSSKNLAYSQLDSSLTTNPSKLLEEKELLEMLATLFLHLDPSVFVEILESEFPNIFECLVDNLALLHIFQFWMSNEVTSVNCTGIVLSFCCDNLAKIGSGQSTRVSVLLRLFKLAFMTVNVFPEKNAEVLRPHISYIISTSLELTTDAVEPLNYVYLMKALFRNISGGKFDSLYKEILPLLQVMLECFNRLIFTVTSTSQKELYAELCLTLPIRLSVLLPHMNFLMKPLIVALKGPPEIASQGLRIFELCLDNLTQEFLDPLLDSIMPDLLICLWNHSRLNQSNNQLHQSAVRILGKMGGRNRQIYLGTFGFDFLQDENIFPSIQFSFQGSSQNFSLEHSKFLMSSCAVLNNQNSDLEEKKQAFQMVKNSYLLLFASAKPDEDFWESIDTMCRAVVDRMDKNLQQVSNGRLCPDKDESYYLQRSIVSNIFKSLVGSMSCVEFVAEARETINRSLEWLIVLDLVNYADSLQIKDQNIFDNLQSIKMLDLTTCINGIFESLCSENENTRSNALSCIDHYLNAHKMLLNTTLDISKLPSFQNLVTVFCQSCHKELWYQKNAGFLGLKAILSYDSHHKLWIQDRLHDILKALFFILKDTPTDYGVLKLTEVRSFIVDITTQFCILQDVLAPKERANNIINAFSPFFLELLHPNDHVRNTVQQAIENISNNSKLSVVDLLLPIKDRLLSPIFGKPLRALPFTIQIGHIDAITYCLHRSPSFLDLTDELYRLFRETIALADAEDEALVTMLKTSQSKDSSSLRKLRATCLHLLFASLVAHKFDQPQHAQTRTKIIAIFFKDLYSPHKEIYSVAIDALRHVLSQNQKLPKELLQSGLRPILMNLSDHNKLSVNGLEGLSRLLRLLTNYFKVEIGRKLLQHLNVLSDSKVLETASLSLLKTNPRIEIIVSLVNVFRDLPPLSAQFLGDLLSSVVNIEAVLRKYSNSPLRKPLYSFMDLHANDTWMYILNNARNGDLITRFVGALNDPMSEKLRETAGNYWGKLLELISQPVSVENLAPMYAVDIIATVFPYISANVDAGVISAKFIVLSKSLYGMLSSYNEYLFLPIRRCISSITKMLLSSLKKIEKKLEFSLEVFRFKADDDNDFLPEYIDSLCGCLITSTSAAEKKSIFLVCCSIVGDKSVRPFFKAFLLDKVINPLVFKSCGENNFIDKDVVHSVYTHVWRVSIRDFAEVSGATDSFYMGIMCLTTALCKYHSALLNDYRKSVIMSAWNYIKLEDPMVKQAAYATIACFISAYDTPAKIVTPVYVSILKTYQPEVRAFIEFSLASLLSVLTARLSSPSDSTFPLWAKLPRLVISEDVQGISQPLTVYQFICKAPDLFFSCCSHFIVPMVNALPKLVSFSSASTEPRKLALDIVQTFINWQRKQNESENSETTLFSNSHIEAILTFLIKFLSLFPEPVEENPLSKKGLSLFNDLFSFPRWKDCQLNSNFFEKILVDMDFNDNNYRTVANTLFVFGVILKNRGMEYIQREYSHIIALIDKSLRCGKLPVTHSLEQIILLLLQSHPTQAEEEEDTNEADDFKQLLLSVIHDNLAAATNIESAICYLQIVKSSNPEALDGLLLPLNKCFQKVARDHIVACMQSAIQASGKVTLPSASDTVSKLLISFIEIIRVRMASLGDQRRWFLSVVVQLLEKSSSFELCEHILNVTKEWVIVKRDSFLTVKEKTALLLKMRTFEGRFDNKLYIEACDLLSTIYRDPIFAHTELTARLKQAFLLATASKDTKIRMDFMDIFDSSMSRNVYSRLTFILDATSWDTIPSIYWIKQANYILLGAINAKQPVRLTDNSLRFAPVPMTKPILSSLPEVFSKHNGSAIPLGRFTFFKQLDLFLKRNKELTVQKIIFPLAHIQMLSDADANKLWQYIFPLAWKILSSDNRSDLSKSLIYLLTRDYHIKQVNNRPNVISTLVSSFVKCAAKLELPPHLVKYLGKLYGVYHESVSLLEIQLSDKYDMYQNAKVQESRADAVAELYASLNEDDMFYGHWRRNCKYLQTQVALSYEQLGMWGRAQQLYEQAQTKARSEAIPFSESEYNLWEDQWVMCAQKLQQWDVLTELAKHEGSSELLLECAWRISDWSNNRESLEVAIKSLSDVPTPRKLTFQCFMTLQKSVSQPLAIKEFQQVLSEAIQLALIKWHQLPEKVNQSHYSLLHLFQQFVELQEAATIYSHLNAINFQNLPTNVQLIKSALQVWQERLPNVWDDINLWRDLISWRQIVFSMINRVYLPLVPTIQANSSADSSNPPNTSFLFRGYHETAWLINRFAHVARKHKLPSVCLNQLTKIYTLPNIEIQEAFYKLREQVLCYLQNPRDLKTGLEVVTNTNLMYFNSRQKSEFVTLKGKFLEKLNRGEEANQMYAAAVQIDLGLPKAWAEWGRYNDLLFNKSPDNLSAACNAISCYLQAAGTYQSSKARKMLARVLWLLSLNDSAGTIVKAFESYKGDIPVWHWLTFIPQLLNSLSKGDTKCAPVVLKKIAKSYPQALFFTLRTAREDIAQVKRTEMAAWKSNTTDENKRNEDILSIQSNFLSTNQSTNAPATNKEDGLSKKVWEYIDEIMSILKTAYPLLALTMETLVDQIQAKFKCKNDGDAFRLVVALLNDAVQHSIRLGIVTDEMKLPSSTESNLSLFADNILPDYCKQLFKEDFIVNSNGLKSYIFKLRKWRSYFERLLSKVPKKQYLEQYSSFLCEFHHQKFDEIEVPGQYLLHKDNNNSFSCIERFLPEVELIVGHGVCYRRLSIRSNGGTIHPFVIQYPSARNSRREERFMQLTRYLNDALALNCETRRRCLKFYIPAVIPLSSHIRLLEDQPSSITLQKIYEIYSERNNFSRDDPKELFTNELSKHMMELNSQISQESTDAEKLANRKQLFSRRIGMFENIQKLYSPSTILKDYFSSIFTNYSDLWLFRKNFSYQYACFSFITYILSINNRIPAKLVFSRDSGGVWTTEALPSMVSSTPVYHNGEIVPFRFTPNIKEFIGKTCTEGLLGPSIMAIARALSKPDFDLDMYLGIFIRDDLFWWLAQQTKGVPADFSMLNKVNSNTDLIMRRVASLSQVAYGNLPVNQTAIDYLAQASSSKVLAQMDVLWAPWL

For the substance “Spt20 (S. pombe) (from UniProt O14174) FIEN>AAAA (HIT sequence … changed to …)”, the ratio to parent worked out at 0.02.

With “Spt20 (S. pombe) (from UniProt O14174) RRKR>AAAA (HIT sequence … changed to …)”, the ratio to parent came to 0.51.
